Data published in patent US20240247301A1, “DIAGNOSTIC ASSAY FOR CLASSIC INBORN GALACTOSEMIA” (Ohio State Innovation Foundation, priority 2022, published 2024).
Where “and” joins values, the source holds several entries; their conditions need not be identical. Equal entries are not always repeated.

System: O=P(O)(O)O[C@H]1O[C@H](CO)[C@@H](O)[C@H](O)[C@H]1O
Test: YidA phosphatase activity (malachite green), dephosphorylation of Glc-1-P
Format: biochemical, Salmonella typhimurium
Description: The sugar phosphate phosphatase produced from an engineered cell can be identical to a naturally occurring one, such as YidA or YihX, but placed within a cell in which it is not naturally produced. Examples of this approach are given throughout. The sequence for YidA from Salmonella typhimurium can be found, for example, in NC_492731.1. This sequence corresponds to SEQ ID NO: 1. The gene ID is 1255358. The sequence for YihX from Salmonella typhimurium can be found, for example, in NC_462906.1. This corresponds to SEQ ID NO: 2. The gene ID is 1255552. In one example, genes encoding these proteins can be placed within a cell in which it is not naturally occurring.
Nearly homogeneous recombinant Salmonella YidA by overexpressing it in E. coli SixPack cells were obtained (Lipinszki et al. 2018) (FIG. 3A). N-terminal fusions with a small ubiquitin-like modifier (SUMO) domain were engineered to enhance solubility (Marblestone et al. 2006) and a His6 tag to facilitate affinity purification (FIG. 3A). […] Since YidA is a Mg^2+-dependent phosphatase, its activity with Glc-1-P in the presence of 0-5 mM MgCl2 was first tested and determined that 3 mM MgCl2 was optimal (FIG. 5). […]

Substance: Salmonella typhimurium YidA, recombinant wild type, SEQ ID NO: 1 (Salmonella enterica subsp. enterica serovar Typhimurium str. LT2)
- Km (other: mean ± SE of two independent trials, pH 8.0): 1.34 ± 0.02 mM and 1.35 ± 0.01 mM
- Km (other: single trials, ± curve-fit error, pH 8, 37° C., 3 mM MgCl2, 37.0 °C): 1.34 ± 0.3 mM and 1.35 ± 0.3 mM
